According to paper PMC11102866:

Legend:
[1] = biological target: NR5A2 D159A D159A (Homo sapiens) (UniProt O00482); experiment: smFRET; details: EMSA: 20 mM Tris-HCl pH 7.5, 120 mM NaCl, 1 mM MgCl2, 10 uM ZnCl2, 1 mM DTT, 100 ug/ml BSA, room temperature, 30 min, 50 nM DNA or nucleosome
[2] = biological target: NR5A2 wild type (Homo sapiens) (UniProt O00482); experiment: smFRET; details: EMSA: 20 mM Tris-HCl pH 7.5, 120 mM NaCl, 1 mM MgCl2, 10 uM ZnCl2, 1 mM DTT, 100 ug/ml BSA, room temperature, 30 min, 50 nM DNA or nucleosome
[3] = biological target: nucleosome reconstituted with Alexa-Fluor-647-labeled H2A-K119C–H2B, H3.3–H4 and DNA carrying the Nr5a2 motif (mouse) (UniProt P10853); experiment: FRET or BRET; single-molecule FRET (TIRF): nucleosomes held on the surface by biotin-streptavidin, Cy3 on the 5' end of 601 DNA next to the motif at SHL +5.5, Alexa Fluor 647 on H2A-K119C; NR5A2 flowed in at 0.1 or 0.5 uM (quantified at 0.1 uM); 50 mM Tris pH 7.6, 120 mM NaCl, 1 mM MgCl2, 10 uM ZnCl2, 10% glycerol, 1 mM DTT, 100 ug/ml BSA; 22.5 C; low-FRET state taken as NR5A2 dwell time, single exponential fits, three replicates

Substance | binding signal [1] | binding signal ([1]; mean lifetime of low-FRET (unwrapped) state, less stable than wild type) | binding signal [2] | binding signal ([2]; mean lifetime of low-FRET (unwrapped) state) | average lifetime of the high-FRET (wrapped, unbound) state [3] | duration of the low-FRET (unwrapped) state, taken as NR5A2 dwell time [3]
601 nucleosome SHL +5.5 for smFRET, with linker DNA | 16.4 s | 9.19 s | 20.3 s | 16.4 s |  | 
human NR5A2 (from UniProt O00482 1-541) (natural protein) |  |  |  |  | 20.3 s | 16.4 s
human NR5A2-D159A (from UniProt O00482 1-541) (natural protein) |  |  |  |  | 16.4 s | 9.19 s
